Data published in doi:10.1101/2025.01.02.631089, “The atypical filament assembly underpins the inflammasome-independent functions of IFI16” (bioRxiv, 2025).

Target: the molecule itself
Test: cryo-EM structure; auto-assembled filaments of recombinant IFI16 PYD, 73 uM, in 40 mM HEPES pH 7.4, 160 mM NaCl, 1 mM EDTA, 1 mM DTT; helical reconstruction

B1: IFI16^PYD (pyrin domain of human Interferon Inducible Protein 16, residues 1-94) (domain or fragment, UniProt Q16666 1-94, looked up)
chain: MGKKYKNIVLLKGLEVINDYHFRMVKSLLSNDLKLNLKMREEYDKIQIADLMEEKFRGDAGLGKLIKIFEDIPTLEDLAETLKKEKLKVKGPAL
notes: Interferon inducible protein 16 (IFI16), human, pyrin domain, residues 1-94; Assembles into a helical filament (three-start helix, 134.6 degrees rotation, 5.6 Å rise, no rotational symmetry); The number of copies in a filament is not defined; Cloned in pET21b; also called IFI16^PYD filament; source: E. coli BL21(DE3), purified (Ni-NTA, Superdex 75 SEC)
B1: binds.
